Assay results: paper doi:10.1101/2020.12.02.408906 (bioRxiv, 2020)

B1: EccC5 ATPase of the ESX-5 type VII secretion system of M. tuberculosis H37Rv (natural protein)
chain: MKRGFARPTPEKPPVIKPENIVLSTPLSIPPPEGKPWWLIVVGVVVVGLLGGMVAMVFASGSHVFGGIGSIFPLFMMVGIMMMMFRGMGGGQQQMSRPKLDAMRAQFMLMLDMLRETAQESADSMDANYRWFHPAPNTLAAAVGSPRMWERKPDGKDLNFGVVRVGVGMTRPEVTWGEPQNMPTDIELEPVTGKALQEFGRYQSVVYNLPKMVSLLVEPWYALVGEREQVLGLMRAIICQLAFSHGPDHVQMIVVSSDLDQWDWVKWLPHFGDSRRHDAAGNARMVYTSVREFAAEQAELFAGRGSFTPRHASSSAQTPTPHTVIIADVDDPQWEYVISAEGVDGVTFFDLTGSSMWTDIPERKLQFDKTGVIEALPRDRDTWMVIDDKAWFFALTDQVSIAEAEEFAQKLAQWRLAEAYEEIGQRVAHIGARDILSYYGIDDPGNIDFDSLWASRTDTMGRSRLRAPFGNRSDNGELLFLDMKSLDEGGDGPHGVMSGTTGSGKSTLVRTVIESLMLSHPPEELQFVLADLKGGSAVKPFAGVPHVSRIITDLEEDQALMERFLDALWGEIARRKAICDSAGVDDAKEYNSVRARMRARGQDMAPLPMLVVVIDEFYEWFRIMPTAVDVLDSIGRQGRAYWIHLMMASQTIESRAEKLMENMGYRLVLKARTAGAAQAAGVPNAVNLPAQAGLGYFRKSLEDIIRFQAEFLWRDYFQPGVSIDGEEAPALVHSIDYIRPQLFTNSFTPLEVSVGGPDIEPVVAQPNGEVLESDDIEGGEDEDEEGVRTPKVGTVIIDQLRKIKFEPYRLWQPPLTQPVAIDDLVNRFLGRPWHKEYGSACNLVFPIGIIDRPYKHDQPPWTVDTSGPGANVLILGAGGSGKTTALQTLICSAALTHTPQQVQFYCLAYSSTALTTVSRIPHVGEVAGPTDPYGVRRTVAELLALVRERKRSFLECGIASMEMFRRRKFGGEAGPVPDDGFGDVYLVIDNYRALAEENEVLIEQVNVIINQGPSFGVHVVVTADRESELRPPVRSGFGSRIELRLAAVEDAKLVRSRFAKDVPVKPGRGMVAVNYVRLDSDPQAGLHTLVARPALGSTPDNVFECDSVVAAVSRLTSAQAPPVRRLPARFGVEQVRELASRDTRQGVGAGGIAWAISELDLAPVYLNFAENSHLMVTGRRECGRTTTLATIMSEIGRLYAPGASSAPPPAPGRPSAQVWLVDPRRQLLTALGSDYVERFAYNLDGVVAMMGELAAALAGREPPPGLSAEELLSRSWWSGPEIFLIVDDIQQLPPGFDSPLHKAVPFVNRAADVGLHVIVTRTFGGWSSAGSDPMLRALHQANAPLLVMDADPDEGFIRGKMKGGPLPRGRGLLMAEDTGVFVQVAATEVRR
B2: EccB5 of the ESX-5 type VII secretion system of M. tuberculosis H37Rv (natural protein)
chain: MAEESRGQRGSGYGLGLSTRTQVTGYQFLARRTAMALTRWRVRMEIEPGRRQTLAVVASVSAALVICLGALLWSFISPSGQLNESPIIADRDSGALYVRVGDRLYPALNLASARLITGRPDNPHLVRSSQIATMPRGPLVGIPGAPSSFSPKSPPASSWLVCDTVATSSSIGSLQGVTVTVIDGTPDLTGHRQILSGSDAVVLRYGGDAWVIREGRRSRIEPTNRAVLLPLGLTPEQVSQARPMSRALFDALPVGPELLVPEVPNAGGPATFPGAPGPIGTVIVTPQISGPQQYSLVLGDGVQTLPPLVAQILQNAGSAGNTKPLTVEPSTLAKMPVVNRLDLSAYPDNPLEVVDIREHPSTCWWWERTAGENRARVRVVSGPTIPVAATEMNKVVSLVKADTSGRQADQVYFGPDHANFVAVTGNNPGAQTSESLWWVTDAGARFGVEDSKEARDALGLTLTPSLAPWVALRLLPQGPTLSRADALVEHDTLPMDMTPAELVVPK
B3: EccD5 of the ESX-5 type VII secretion system of M. tuberculosis H37Rv (natural protein)
chain: MTAVADAPQADIEGVASPQAVVVGVMAGEGVQIGVLLDANAPVSVMTDPLLKVVNSRLRELGEAPLEATGRGRWALCLVDGAPLRATQSLTEQDVYDGDRLWIRFIADTERRSQVIEHISTAVASDLSKRFARIDPIVAVQVGASMVATGVVLATGVLGWWRWHHNTWLTTIYTAVIGVLVLAVAMLLLMRAKTDADRRVADIMLMSAIMPVTVAAAAAPPGPVGSPQAVLGFGVLTVAAALALRFTGRRLGIYTTIVIIGALTMLAALARMVAATSAVTLLSSLLLICVVAYHAAPALSRRLAGIRLPVFPSATSRWVFEARPDLPTTVVVSGGSAPVLEGPSSVRDVLLQAERARSFLSGLLTGLGVMVVVCMTSLCDPHTGQRWLPLILAGFTSGFLLLRGRSYVDRWQSITLAGTAVIIAAAVCVRYALELSSPLAVSIVAAILVLLPAAGMAAAAHVPHTIYSPLFRKFVEWIEYLCLMPIFPLALWLMNVYAAIRYR
B4: MycP5 protease (mycosin) of the ESX-5 type VII secretion system of M. tuberculosis H37Rv (enzyme)
chain: ISPPTIDPGALPPDGPPGPLAPMKQNAYCTEVGVLPGTDFQLQPKYMEMLNLNEAWQFGRGDGVKVAVIDTGVTPHPRLPRLIPGGDYVMAGGDGLSDCDAHGTLVASMIAAVPANGAVPLPSVPRRPVTIPTTETPPPPQTVTLSPVPPQTVTVIPAPPPEEGVPPGAPVPGPEPPPAPGPQPPAVDRGGGTVTVPSYSGGRKIAPIDNPRNPHPSAPSPALGPPPDAFSGIAPGVEIISIRQSSQAFGLKDPYTGDEDPQTAQKIDNVETMARAIVHAANMGASVINISDVMCMSARNVIDQRALGAAVHYAAVDKDAVIVAAAGDGSKKDCKQNPIFDPLQPDDPRAWNAVTTVVTPSWFHDYVLTVGAVDANGQPLSKMSIAGPWVSISAPGTDVVGLSPRDDGLINAIDGPDNSLLVPAGTSFSAAIVSGVAALVRAKFPELSAYQIINRLIHTARPPARGVDNQVGYGVVDPVAALTWDVPKGPAEPPKQLSAPLVVPQPPAPRDMVPIWVAAGGLAGALLIGGAVFGTATLMRRSRKQQ

Target: the molecule itself
Test: cryo-EM structure

Row | Protein | stoichiometry N
1 | B1 | 2
2 | B2 | 6
3 | B3 | 2
4 | B4 | 3
